Data as given in PMC6745501, “Plant photoreceptors and their signaling components compete for COP1 binding via VP peptide motifs” (The EMBO Journal, 2019).

Biological target: UVR8^HY5C44 chimera (recombinant) (Arabidopsis)
Assay: SEC; purified recombinant chimeric UVR8 proteins alone, in the absence of UV-B

- stoichiometry N: 2
Substance: UVR8^HY5C44 chimera (recombinant)
